# T1: 可溶性ヒトRANKL蛋白質 (human, UniProt O14788 140-317, limits assumed, biotinylated with NHS-biotin at 20:1 molar ratio in the competition ELISA (sites not given); not biotinylated in the cell assays)
# T1 construct: Soluble form; also called shRANKL; sRANKL
# T1 sequence (looked up): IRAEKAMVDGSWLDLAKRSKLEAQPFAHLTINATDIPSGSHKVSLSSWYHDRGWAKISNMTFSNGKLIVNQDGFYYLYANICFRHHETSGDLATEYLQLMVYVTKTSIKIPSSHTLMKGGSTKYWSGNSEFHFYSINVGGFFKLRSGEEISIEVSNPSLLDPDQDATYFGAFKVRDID
# B1: ヒトRANK−Fc融合蛋白質 (Fc fusion, human, UniProt Q9Y6Q6 30-212, looked up)
# chain: IAPPCTSEKHYEHLGRCCNKCEPGKYMSSKCTTTSDSVCLPCGPDEYLDSWNEEDKCLLHKVCDTGKALVAVVAGNSTTPRRCACTAGYHWSQDCECCRRNTECAPGLGAQHPLQLNKDTVCKPCLAGYFSDAFSSTDKCRPWTNCTFLGKRVEHHGTEKSDAVCSSSLPARKPPNEPHVYLP
# notes: Construct limits and Fc not described; also called RANK−Fc蛋白質; not shown: Fc part
# B2: マウスモノクローナル抗体14F3 (antibody, V domains shown)
# VH: EVQLVESGGDLVKPGGSLKLSCAASGFTFSRYGMSWVRQTPDKRLEWVATISSGGSYTYYPDSVKGRFTISRDNAKNTLYLQMSSLKSEDTAMYYCARLDGYNYRWYFDVWGTGTTVTVSS
# VL: DIVMTQSHKFMSTSVGDRVSITCKASQDVSSAVAWYQQKPGQSPKLLIYSASYRYTGVPDRFTGSGSGTDFTFTISSVQAEDLAVYYCQQHYSSPRTFGGGTNLEIKR
# notes: Murine IgG2a/kappa purified from hybridoma; also called RANKL mAb 14F3; mAb14F3
# B3: OPG−Fc (Fc fusion, UniProt O00300 22-201, looked up)
# chain: ETFPPKYLHYDEETSHQLLCDKCPPGTYLKQHCTAKWKTVCAPCPDHYYTDSWHTSDECLYCSPVCKELQYVKQECNRTHNRVCECKEGRYLEIEFCLKHRSCPPGFGVVQAGTPERNTVCKRCPDGFFSNETSSKAPCRKHTNCSVFGLLLTQKGNATHDNICSGNSESTQKCGIDVTL
# notes: also called osteoprotegerin-Fc; not shown: Fc part; not described
# Legend:
# 可溶性ヒトRANKL蛋白質 [1] = target: T1, 可溶性ヒトRANKL蛋白質; experiment: competition ELISA: soluble competitor against biotinylated shRANKL binding to coated RANK-Fc
# 可溶性ヒトRANKL蛋白質 [2] = target: T1, 可溶性ヒトRANKL蛋白質; experiment: cell-based or functional assay
# 可溶性ヒトRANKL蛋白質 [3] = target: T1, 可溶性ヒトRANKL蛋白質; experiment: competition ELISA: inhibition of biotinylated shRANKL binding to coated RANK-Fc
# 可溶性ヒトRANKL蛋白質 [4] = target: T1, 可溶性ヒトRANKL蛋白質; experiment: not described in an example; paragraph 39 names optical biosensor analysis for the Kd
Binder,IC50 (可溶性ヒトRANKL蛋白質 [1]) [nM],"IC50, osteoclast formation from human monocytes with human soluble RANKL and M-CSF (multinucleated cells) (可溶性ヒトRANKL蛋白質 [2]) [µg/mL]","concentration of complete inhibition, osteoclast formation from mouse bone marrow cells stimulated by human sRANKL (可溶性ヒトRANKL蛋白質 [2]) [µg/mL]","IC50, osteoclast formation from mouse bone marrow cells stimulated by human sRANKL (TRAP-positive cells per well) (可溶性ヒトRANKL蛋白質 [2]) [µg/mL]",IC50 (可溶性ヒトRANKL蛋白質 [3]) [nM],Kd (可溶性ヒトRANKL蛋白質 [4]) [nM]
B1,~6,~0.5,10,–,–,–
B2,–,~4,1,~0.2,~2,~0.1
B3,–,–,1,~0.2,~0.5,–

# — patent publication JP2005515752A (dated 2005)
